Source: publication PMC8617373 (Cell Research, 2021)

B1: ASGR1 expressed on HEK293E cells (receptor)
chain: MTKEYQDLQHLDNEESDHHQLRKGPPPPQPLLQRLCSGPRLLLLSLGLSLLLLVVVCVIGSQNSQLQEELRGLRETFSNFTASTEAQVKGLSTQGGNVGRKMKSLESQLEKQQKDLSEDHSSLLLHVKQFVSDLRSLSCQMAALQGNGSERTCCPVNWVEHERSCYWFSRSGKAWADADNYCRLEDAHLVVVTSWEEQKFVQHHIGPVNTWMGLHDQNGPWKWVDGTDYETGFKNWRPEQPDDWYGHGLGGGEDCAHFTDDGRWNDDVCQRPYRWVCETELDKASQEPPLL
B2: KREMEN1 expressed on HEK293E cells (receptor)
chain: ARPAPSPGLGPECFTANGADYRGTQNWTALQGGKPCLFWNETFQHPYNTLKYPNGEGGLGEHNYCRNPDGDVSPWCYVAEHEDGVYWKYCEIPACQMPGNLGCYKDHGNPPPLTGTSKTSNKLTIQTCISFCRSQRFKFAGMESGYACFCGNNPDYWKYGEAASTECNSVCFGDHTQPCGGDGRIILFDTLVGACGGNYSAMSSVVYSPDFPDTYATGRVCYWTIRVPGASHIHFSFPLFDIRDSADMVELLDGYTHRVLARFHGRSRPPLSFNVSLDFVILYFFSDRINQAQGFAVLYQAVKEELPQERPAVNQTVAEVITEQANLSVSAARSSKVLYVITTSPSHPPQTVPGSNSWAPPMGAGSHRVEGWTVYGLATLLILTVTAIVAKILLHVTFKSHRVPASGDLRDCHQPGTSGEIWSIFYKPSTSISIFKKKLKGQSQQDDRNPLVSD

Target: SARS-CoV-2 S-ECD-hFc (extracellular domain of the spike (S) protein, hFc-tagged) (SARS-CoV-2, UniProt P0DTC2 14-1213)
Experiment: flow cytometry on cells

Row | Binder | Kd [nM]
1 | B1 | 94.8
2 | B2 | 19.3
